# Measured values as given in the supplement of paper PMC10567573.
# B1: NETO1 (parent)
# chain: KTSLLDQLTNTSGTVIGVTSCIVI
# Variants of: B1
# Assay: protein stability index of a GFP-peptide fusion (GPS, HEK-293T) (PSI 1-6); higher = more stable
# Settings: c terminus: a fixed tail appended
# 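Further: lentivirally expressed fusions sorted by FACS into six bins by GFP to DsRed ratio, PSI derived from sequencing read proportions per bin multiplied by bin number.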
row,Variant,protein stability index
1,KTSLLDQLTNTSGTVIGVTSCTVI,3.07
2,KTSLLDQLTNTSGTVIGVTSCCVI,3.54
3,KTSLLDQLTNTSGTVIGVTSCRVI,1.87
4,KTSLLDQLTNTSGTVIGVTSCEVI,2.32
5,KTSLLDQLTNTSGTVIGVTSCHVI,2.1
6,KTSLLDQLTNTSGTVIGVTSCGVI,2.36
7,KTSLLDQLTNTSGTVIGVTSCSVI,1.45
8,KTSLLDQLTNTSGTVIGVTSCDVI,2.39
9,KTSLLDQLTNTSGTVIGVTSCPVI,2.37
10,KTSLLDQLTNTSGTVIGVTSCKVI,2.35
11,KTSLLDQLTNTSGTVIGVTSCVVI,3.37
12,KTSLLDQLTNTSGTVIGVTSCMVI,3.35
13,KTSLLDQLTNTSGTVIGVTSCNVI,1.72
14,KTSLLDQLTNTSGTVIGVTSCAVI,2.12
15,KTSLLDQLTNTSGTVIGVTSCFVI,2.56
16,KTSLLDQLTNTSGTVIGVTSCLVI,2.08
17,KTSLLDQLTNTSGTVIGVTSCQVI,2.15
18,KTSLLDQLTNTWGTVIGVTSCIVI,1.75
19,KTSLLDQLTNTYGTVIGVTSCIVI,3.62
20,KTSLLDQLTNTSGTDIGVTSCIVI,3.39
21,KTSLLDQLTNTSGTTIGVTSCIVI,3.07
22,KTSLLDQLTNTSGTQIGVTSCIVI,2.33
23,KTSLLDQLTNTSGTYIGVTSCIVI,3.74
24,KTSLLDQLTNTSGTCIGVTSCIVI,2.06

row,Variant,protein stability index
1,KTSLLDQLTNTSGTPIGVTSCIVI,3.31
2,KTSLLDQLTNTSGTHIGVTSCIVI,1.99
3,KTSLLDQLTNTSGTEIGVTSCIVI,2.04
4,KTSLLDQLTNTSGTIIGVTSCIVI,3.08
5,KTSLLDQLTNTSGTMIGVTSCIVI,2.87
6,KTSLLDQLTNTSGTGIGVTSCIVI,2.98
7,KTSLLDQLTNTSGTAIGVTSCIVI,2.65
8,KTSLLDQLTNTSGTLIGVTSCIVI,4.43
9,KTSLLDQLTNTSGTNIGVTSCIVI,2.74
10,KTSLLDQLTNTSGTRIGVTSCIVI,2.45
11,KTSLLDQLTNTSGTFIGVTSCIVI,2.44
12,KTSLLDQLTNTSGTWIGVTSCIVI,2.59
13,KTSLLDQLTNTSGTSIGVTSCIVI,2.96
14,KTSLLDQLTNTSGTKIGVTSCIVI,3.5
15,KTSLLDQLTNTSGHVIGVTSCIVI,2.62
16,KTSLLDQLTNTSGGVIGVTSCIVI,2.11
17,KTSLLDQLTNTSGPVIGVTSCIVI,2.69
18,KTSLLDQLTNTSGAVIGVTSCIVI,2.03
19,KTSLLDQLTNTSGSVIGVTSCIVI,1.94
20,KTSLLDQLTNTSGYVIGVTSCIVI,2.64
21,KTSLLDQLTNTSGIVIGVTSCIVI,2.98
22,KTSLLDQLTNTSGFVIGVTSCIVI,2.82
23,KTSLLDQLTNTSGKVIGVTSCIVI,3.88
24,KTSLLDQLTNTSGQVIGVTSCIVI,3.41

row,Variant,protein stability index
1,KTSLLDQLTNTSGVVIGVTSCIVI,3.29
2,KTSLLDQLTNTSGRVIGVTSCIVI,3.41
3,KTSLLDQLTNTSGLVIGVTSCIVI,2.47
4,KTSLLDQLTNTSGEVIGVTSCIVI,3.18
5,KTSLLDQLTNTSGCVIGVTSCIVI,2.61
6,KTSLLDQLTNTSGMVIGVTSCIVI,2.62
7,KTSLLDQLTNTSGNVIGVTSCIVI,2.98
8,KTSLLDQLTNTSGWVIGVTSCIVI,2.37
9,KTSLLDQLTNTSGDVIGVTSCIVI,2.58
10,KTSLLDQLTNTSGTVDGVTSCIVI,2.52
11,KTSLLDQLTNTSGTVMGVTSCIVI,2.62
12,KTSLLDQLTNTSGTVCGVTSCIVI,3.8
13,KTSLLDQLTNTSGTVKGVTSCIVI,3.1
14,KTSLLDQLTNTSGTVSGVTSCIVI,3.79
15,KTSLLDQLTNTSGTVWGVTSCIVI,2.03
16,KTSLLDQLTNTSGTVVGVTSCIVI,2.48
17,KTSLLDQLTNTSGTVYGVTSCIVI,2.12
18,KTSLLDQLTNTSGTVAGVTSCIVI,2.44
19,KTSLLDQLTNTSGTVTGVTSCIVI,3.23
20,KTSLLDQLTNTSGTVRGVTSCIVI,2.79
21,KTSLLDQLTNTSGTVHGVTSCIVI,2.67
22,KTSLLDQLTNTSGTVLGVTSCIVI,2.98
23,KTSLLDQLTNTSGTVQGVTSCIVI,2.94
24,KTSLLDQLTNTSGTVPGVTSCIVI,2.76

row,Variant,protein stability index
1,KTSLLDQLTNTSGTVNGVTSCIVI,2.27
2,KTSLLDQLTNTSGTVEGVTSCIVI,2.85
3,KTSLLDQLTNTSGTVFGVTSCIVI,3.68
4,KTSLLDQLTNTSGTVIGATSCIVI,3.38
5,KTSLLDQLTNTSGTVIGWTSCIVI,4.09
6,KTSLLDQLTNTSGTVIGYTSCIVI,3.56
7,KTSLLDQLTNTSGTVIGKTSCIVI,3.8
8,KTSLLDQLTNTSGTVIGGTSCIVI,3.24
9,KTSLLDQLTNTSGTVIGFTSCIVI,2.48
10,KTSLLDQLTNTSGTVIGLTSCIVI,3.12
11,KTSLLDQLTNTSGTVIGSTSCIVI,3.67
12,KTSLLDQLTNTSGTVIGHTSCIVI,2.95
13,KTSLLDQLTNTSGTVIGNTSCIVI,4.17
14,KTSLLDQLTNTSGTVIGDTSCIVI,2.55
15,KTSLLDQLTNTSGTVIGPTSCIVI,2.84
16,KTSLLDQLTNTSGTVIGTTSCIVI,2.93
17,KTSLLDQLTNTSGTVIGITSCIVI,2.84
18,KTSLLDQLTNTSGTVIGQTSCIVI,2.66
19,KTSLLDQLTNTSGTVIGMTSCIVI,3.92
20,KTSLLDQLTNTSGTVIGCTSCIVI,1.92
21,KTSLLDQLTNTSGTVIGRTSCIVI,2.23
22,KTSLLDQLTNTSGTVIGETSCIVI,2.2
23,KTSLLDQLTNTSGTVIGVTWCIVI,3.86
24,KTSLLDQLTNTSGTVIGVTDCIVI,2.83

row,Variant,protein stability index
1,KTSLLDQLTNTSGTVIGVTCCIVI,2.91
2,KTSLLDQLTNTSGTVIGVTTCIVI,2.37
3,KTSLLDQLTNTSGTVIGVTGCIVI,2.14
4,KTSLLDQLTNTSGTVIGVTLCIVI,2.79
5,KTSLLDQLTNTSGTVIGVTMCIVI,2.89
6,KTSLLDQLTNTSGTVIGVTACIVI,3.66
7,KTSLLDQLTNTSGTVIGVTVCIVI,2.44
8,KTSLLDQLTNTSGTVIGVTFCIVI,2.87
9,KTSLLDQLTNTSGTVIGVTNCIVI,3.04
10,KTSLLDQLTNTSGTVIGVTHCIVI,2.97
11,KTSLLDQLTNTSGTVIGVTECIVI,4.15
12,KTSLLDQLTNTSGTVIGVTRCIVI,4.13
13,KTSLLDQLTNTSGTVIGVTPCIVI,2.98
14,KTSLLDQLTNTSGTVIGVTICIVI,3.08
15,KTSLLDQLTNTSGTVIGVTKCIVI,3.19
16,KTSLLDQLTNTSGTVIGVTQCIVI,2.53
17,KTSLLDQLTNTSGTVIGVTYCIVI,2.8
18,KTSLLDQLTNTSGTVIGVPSCIVI,1.91
19,KTSLLDQLTNTSGTVIGVYSCIVI,2.79
20,KTSLLDQLTNTSGTVIGVKSCIVI,2.97
21,KTSLLDQLTNTSGTVIGVDSCIVI,1.59
22,KTSLLDQLTNTSGTVIGVMSCIVI,2.5
23,KTSLLDQLTNTSGTVIGVESCIVI,2.68
24,KTSLLDQLTNTSGTVIGVHSCIVI,4.49

row,Variant,protein stability index
1,KTSLLDQLTNTSGTVIGVCSCIVI,2.73
2,KTSLLDQLTNTSGTVIGVASCIVI,3.16
3,KTSLLDQLTNTSGTVIGVFSCIVI,2.52
4,KTSLLDQLTNTSGTVIGVISCIVI,2.2
5,KTSLLDQLTNTSGTVIGVGSCIVI,3
6,KTSLLDQLTNTSGTVIGVSSCIVI,3.29
7,KTSLLDQLTNTSGTVIGVWSCIVI,2.06
8,KTSLLDQLTNTSGTVIGVQSCIVI,3.55
9,KTSLLDQLTNTSGTVIGVLSCIVI,3.78
10,KTSLLDQLTNTSGTVIGVVSCIVI,2.91
11,KTSLLDQLTNTSGTVIGVRSCIVI,3.08
12,KTSLLDQLTNTSGTVIGVNSCIVI,3.28
13,KTSLLDQLTNTSGTVIDVTSCIVI,3.37
14,KTSLLDQLTNTSGTVIFVTSCIVI,2.72
15,KTSLLDQLTNTSGTVICVTSCIVI,3.42
16,KTSLLDQLTNTSGTVITVTSCIVI,3.32
17,KTSLLDQLTNTSGTVISVTSCIVI,3.25
18,KTSLLDQLTNTSGTVIEVTSCIVI,2.69
19,KTSLLDQLTNTSGTVIIVTSCIVI,3.43
20,KTSLLDQLTNTSGTVIPVTSCIVI,3.45
21,KTSLLDQLTNTSGTVIRVTSCIVI,2.88
22,KTSLLDQLTNTSGTVIHVTSCIVI,3.23
23,KTSLLDQLTNTSGTVIMVTSCIVI,2.55
24,KTSLLDQLTNTSGTVIVVTSCIVI,2.91

row,Variant,protein stability index
1,KTSLLDQLTNTSGTVINVTSCIVI,3.28
2,KTSLLDQLTNTSGTVILVTSCIVI,3.83
3,KTSLLDQLTNTSGTVIQVTSCIVI,2.36
4,KTSLLDQLTNTSGTVIAVTSCIVI,2.71
5,KTSLLDQLTNTSGTVIYVTSCIVI,1.98
6,KTSLLDQLTNTSGTVIWVTSCIVI,2.9
7,KTSLLDQLTNTSGTVIKVTSCIVI,2.64
8,KTSLLDQLTNTSDTVIGVTSCIVI,2.26
9,KTSLLDQLTNTSVTVIGVTSCIVI,2.66
10,KTSLLDQLTNTSATVIGVTSCIVI,2.12
11,KTSLLDQLTNTSPTVIGVTSCIVI,2.94
12,KTSLLDQLTNTSLTVIGVTSCIVI,2.42
13,KTSLLDQLTNTSKTVIGVTSCIVI,2.9
14,KTSLLDQLTNTSITVIGVTSCIVI,2.57
15,KTSLLDQLTNTSFTVIGVTSCIVI,3.7
16,KTSLLDQLTNTSNTVIGVTSCIVI,3.9
17,KTSLLDQLTNTSCTVIGVTSCIVI,2.5
18,KTSLLDQLTNTSHTVIGVTSCIVI,2.65
19,KTSLLDQLTNTSETVIGVTSCIVI,3.52
20,KTSLLDQLTNTSMTVIGVTSCIVI,3.17
21,KTSLLDQLTNTSSTVIGVTSCIVI,3.19
22,KTSLLDQLTNTSTTVIGVTSCIVI,2.23
23,KTSLLDQLTNTSRTVIGVTSCIVI,3.34
24,KTSLLDQLTNTSWTVIGVTSCIVI,3.1

row,Variant,protein stability index
1,KTSLLDQLTNTSYTVIGVTSCIVI,3.2
2,KTSLLDQLTNTSGTVIGVTSYIVI,2.72
3,KTSLLDQLTNTSGTVIGVTSHIVI,2.2
4,KTSLLDQLTNTSGTVIGVTSRIVI,3.31
5,KTSLLDQLTNTSGTVIGVTSWIVI,2.62
6,KTSLLDQLTNTSGTVIGVTSIIVI,2.7
7,KTSLLDQLTNTSGTVIGVTSGIVI,3.12
8,KTSLLDQLTNTSGTVIGVTSKIVI,3.29
9,KTSLLDQLTNTSGTVIGVTSFIVI,3.65
10,KTSLLDQLTNTSGTVIGVTSLIVI,3.29
11,KTSLLDQLTNTSGTVIGVTSEIVI,2.83
12,KTSLLDQLTNTSGTVIGVTSMIVI,2.41
13,KTSLLDQLTNTSGTVIGVTSDIVI,2.31
14,KTSLLDQLTNTSGTVIGVTSQIVI,3.44
15,KTSLLDQLTNTSGTVIGVTSPIVI,2.13
16,KTSLLDQLTNTSGTVIGVTSTIVI,2.88
17,KTSLLDQLTNTSGTVIGVTSSIVI,3.06
18,KTSLLDQLTNTSGTVIGVTSAIVI,2.7
19,KTSLLDQLTNTSGTVIGVTSNIVI,3.1
20,KTSLLDQLTNTSGTVIGVTSVIVI,3.29
